In patent US20030087316A1, “Diagnostic markers of liver dysfunction” (priority 2001, published 2003):
Entries after “also recorded” stand apart in the source; their conditions may differ. Non-standard residues stand in square brackets, D forms with d. No end group written: not given here. *: point of attachment. pNA = O=[N+]([O-])c1ccc(N*)cc1

B1: SBTI: soybean trypsin inhibitor, purchased from Sigma Chemical (protein, UniProt P01070 25-205, looked up)
Trypsin inhibitor A: DFVLDNEGNPLENGGTYYILSDITAFGGIRAAPTGNERCPLTVVQSRNELDKGIGTIISSPYRIRFIAEGHPLSLKFDSFAVIMLCVGIPTEWSVVEDLPEGPAVKIGENKDAMDGWFRLERVSDDEFNNYKLVFCPQQAEDDKCGDIGISIDHDDGTRRLVVSKNKPLVVQFQKLDKESL

Assays:
[1] = target: T1, C1s (Homo sapiens, UniProt P09871); assay: Peptidase (amidolytic) activity of purified C1s, chromogenic substrate, 96-well plate, OD 405 nm; type: biochemical; conditions: enzyme 10 nM, 37° C., 15 min (FIG. 7)
T1 construct: purchased Advanced Research Technologies (San Diego, Calif.)
T1 sequence (P09871 438-688 limits assumed): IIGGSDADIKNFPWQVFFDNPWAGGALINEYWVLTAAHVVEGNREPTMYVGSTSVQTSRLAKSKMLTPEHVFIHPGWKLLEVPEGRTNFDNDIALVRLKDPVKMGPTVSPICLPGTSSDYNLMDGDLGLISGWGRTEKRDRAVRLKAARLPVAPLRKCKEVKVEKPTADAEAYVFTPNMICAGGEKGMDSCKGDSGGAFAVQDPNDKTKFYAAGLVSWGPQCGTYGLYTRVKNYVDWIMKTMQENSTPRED
T1 sequence (P09871 16-437 partner limits assumed): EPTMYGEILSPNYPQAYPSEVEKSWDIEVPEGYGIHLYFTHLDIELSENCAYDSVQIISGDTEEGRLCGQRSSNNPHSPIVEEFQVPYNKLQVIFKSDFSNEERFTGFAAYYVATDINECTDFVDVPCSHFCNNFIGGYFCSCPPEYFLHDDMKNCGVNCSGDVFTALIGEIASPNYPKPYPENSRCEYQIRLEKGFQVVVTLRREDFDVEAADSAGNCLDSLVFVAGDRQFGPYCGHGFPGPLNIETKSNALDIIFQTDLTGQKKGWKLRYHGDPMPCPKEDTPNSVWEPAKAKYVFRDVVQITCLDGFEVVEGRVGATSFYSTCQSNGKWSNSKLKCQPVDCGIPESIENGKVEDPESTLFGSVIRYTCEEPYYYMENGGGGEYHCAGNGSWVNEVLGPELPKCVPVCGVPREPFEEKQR

[2] = target: T2, thrombin (Homo sapiens, UniProt P00734); assay: Peptidase (amidolytic) activity of purified thrombin, chromogenic substrate, OD 405 nm; type: biochemical; conditions: for Cleavage of the substrate by thrombin, in words: enzyme 10 nM, 37° C., 15 min (FIG. 7)
T2 construct: purchased Calbiochem-Novabiochem Corp (La Jolla, Calif.)

[3] = target: T3, plasma kallikrein (Homo sapiens, UniProt P03952); assay: Peptidase (amidolytic) activity of purified plasma kallikrein, chromogenic substrate, OD 405 nm; type: biochemical; conditions: for Cleavage of the substrate by plasma kallikrein, in words: enzyme 10 nM, 37° C., 15 min (FIG. 7)
T3 construct: The light chain of kallikrein contains the enzymatic domain; purchased Calbiochem-Novabiochem Corp (La Jolla, Calif.)
T3 sequence (P03952 391-638 limits assumed): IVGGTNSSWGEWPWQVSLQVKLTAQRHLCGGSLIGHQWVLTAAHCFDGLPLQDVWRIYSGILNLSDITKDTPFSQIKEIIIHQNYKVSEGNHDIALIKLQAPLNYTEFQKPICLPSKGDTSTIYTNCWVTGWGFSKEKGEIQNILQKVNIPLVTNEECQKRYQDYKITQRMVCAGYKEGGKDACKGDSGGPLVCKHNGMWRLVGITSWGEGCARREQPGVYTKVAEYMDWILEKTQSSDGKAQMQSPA
T3 sequence (P03952 20-390 partner limits assumed): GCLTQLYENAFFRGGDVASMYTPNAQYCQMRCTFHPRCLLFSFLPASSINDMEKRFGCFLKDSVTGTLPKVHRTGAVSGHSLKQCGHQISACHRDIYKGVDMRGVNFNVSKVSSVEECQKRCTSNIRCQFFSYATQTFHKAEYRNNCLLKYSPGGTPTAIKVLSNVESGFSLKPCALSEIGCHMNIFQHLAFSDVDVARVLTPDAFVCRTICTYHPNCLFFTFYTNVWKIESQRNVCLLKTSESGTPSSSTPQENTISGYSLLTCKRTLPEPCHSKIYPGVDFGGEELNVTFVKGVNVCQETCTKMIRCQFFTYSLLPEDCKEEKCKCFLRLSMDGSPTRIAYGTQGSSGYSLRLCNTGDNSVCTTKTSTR
Protocol: (§1) The peptidase activity in plasma samples or of the purified enzymes were routinely determined at 37° C. in a 96-well plate. Each well contained 0.5 mM substrate in 100 μl of Tris-buffered saline (TBS)-EDTA buffer (50 mM Tris/150 mM NaCl/10 mM EDTA, pH 7.8) and the reaction was monitored using a microplate reader (Titertek Multiscan, Labsystems, Needham Heights, Mass.).
(§2) […] EDTA plasma samples from LTR were diluted 10 or 20-fold with TBS-EDTA. The chromogenic substrate AGLTR-pNA was used for all enzymes and LTR samples except C1s where the substrate S2288 was used. Based on the initial rate of increase in OD at 405 nm, the residual free enzyme level was calculated and expressed as a percentage of total activity without inhibitor added.
(§3) Ten-fold diluted normal EDTA plasma was added to each enzyme. […] LTR samples were 10 or 20-fold diluted with TBS-EDTA. The chromogenic substrate AGLTR-pNA was used for all enzymes and LTP samples except C1s where the substrate S2288 was used. Based on the initial rate of increase in OD at 405 nm, the residual free enzyme was calculated and expressed as a percentage of total activity determined without inhibitor added.

[4] = test system: trypsin; assay: Peptidase (amidolytic) activity of purified trypsin, chromogenic substrate, OD 405 nm; type: biochemical; conditions: enzyme 10 nM, 37° C., 15 min (FIG. 7)
[5] = test system: tissue kallikrein; assay: Peptidase activity of purified tissue kallikrein on chromogenic substrates; type: biochemical; conditions: enzyme 10 nM, 37° C., 15 min (FIG. 7)
Protocol: as §1

[6] = target: T4, β-Factor XIIa (β-FXIIa) (Homo sapiens, UniProt P00748); assay: Peptidase (amidolytic) activity of purified β-FXIIa, chromogenic substrate, OD 405 nm; type: biochemical; conditions: for Cleavage of the substrate by β-FXIIa, in words: enzyme 10 nM, 37° C., 15 min (FIG. 7)
T4 construct: β-Factor XIIa (β-FXIIa) was kindly provided by Dr. Mary J. Heeb; gift of Dr. Mary J. Heeb, The Scripps Research Institute
T4 sequence (P00748 373-615 limits assumed, other chains not shown): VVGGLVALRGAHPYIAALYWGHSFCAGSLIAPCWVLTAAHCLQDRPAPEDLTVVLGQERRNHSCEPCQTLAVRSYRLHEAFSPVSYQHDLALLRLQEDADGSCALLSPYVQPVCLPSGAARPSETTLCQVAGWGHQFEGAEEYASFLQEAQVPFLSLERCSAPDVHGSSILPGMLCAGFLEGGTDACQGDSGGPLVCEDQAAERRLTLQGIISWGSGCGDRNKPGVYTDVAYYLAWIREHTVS
Protocol: as §1, §2, §3

[7] = target: T5, plasmin (Homo sapiens, UniProt P00747); assay: Peptidase (amidolytic) activity of purified plasmin, chromogenic substrate, OD 405 nm; type: biochemical; conditions: enzyme 10 nM, 37° C., 15 min (FIG. 7)
T5 construct: purchased Calbiochem-Novabiochem Corp (La Jolla, Calif.)
T5 sequence (P00747 581-810 limits assumed, species assumed): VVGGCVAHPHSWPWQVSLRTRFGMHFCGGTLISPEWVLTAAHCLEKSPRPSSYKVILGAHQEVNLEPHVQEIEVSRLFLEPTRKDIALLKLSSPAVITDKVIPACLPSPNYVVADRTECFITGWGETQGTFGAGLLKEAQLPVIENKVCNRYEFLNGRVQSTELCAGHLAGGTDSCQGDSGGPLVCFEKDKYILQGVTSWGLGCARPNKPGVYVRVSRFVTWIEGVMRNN
T5 sequence (P00747 97-580 partner limits assumed, species assumed): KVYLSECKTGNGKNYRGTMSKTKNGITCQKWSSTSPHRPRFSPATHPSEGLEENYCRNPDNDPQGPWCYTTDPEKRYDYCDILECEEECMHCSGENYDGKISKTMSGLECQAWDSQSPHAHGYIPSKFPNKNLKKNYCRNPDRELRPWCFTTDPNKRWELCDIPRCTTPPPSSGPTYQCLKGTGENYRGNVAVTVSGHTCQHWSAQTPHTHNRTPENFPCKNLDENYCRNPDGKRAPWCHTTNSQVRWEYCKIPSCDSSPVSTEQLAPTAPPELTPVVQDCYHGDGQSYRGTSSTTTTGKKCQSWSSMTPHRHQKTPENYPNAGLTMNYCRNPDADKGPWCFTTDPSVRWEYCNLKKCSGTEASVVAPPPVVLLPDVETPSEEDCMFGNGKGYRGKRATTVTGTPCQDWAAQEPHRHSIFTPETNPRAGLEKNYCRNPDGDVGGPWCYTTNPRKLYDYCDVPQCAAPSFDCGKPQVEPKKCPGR

[8] = test system: proteinase(s) in EDTA plasma from LTR (kallikrein-like peptidase); assay: Peptidase activity in EDTA plasma from liver transplant recipients (LTR), chromogenic substrate, OD 405 nm; type: biochemical, human; conditions: Sephacryl S-300 fractions of LTR plasma, 37° C. (FIG. 4)
[9] = test system: proteinase(s) in EDTA plasma from LTR (kallikrein-like peptidase); assay: as above; type: biochemical, human
Protocol: Blood samples were drawn into 5 ml EDTA tubes (Venoject; Terumo Corp., Elkton, Md.). The plasma was collected immediately by centrifugation at 2,000×g for 15 min at 4° C. The plasma samples were either processed immediately for analysis or stored at −70° C. Frozen samples were thawed at 4° C. prior to analysis.
as §1
(§4) The enzymes C1s (100 nM), plasm in (100 nM), thrombin (100 nM), plasma kallikrein (20 nM), β-FXIIa (100 nM), trypsin (16 nM) or LTR EDTA plasma samples were incubated for 60 min at 4° C. with TBS-EDTA buffer containing either LBTI (1 mg/ml), SBTI (I mg/ml), aprotinin (0.075 mg/ml), benzamidine (50 mM), or Futhan (0.1 mg/ml), before mixing with the substrate. EDTA plasma samples from LTR were diluted 10 or 20-fold with TBS-EDTA. The chromogenic substrate AGLTR-pNA was used for all enzymes and LTR samples except C1s where the substrate S2288 was used. Based on the initial rate of increase in OD at 405 nm, the residual free enzyme level was calculated and expressed as a percentage of total activity without inhibitor added.
(§5) Ten-fold diluted normal EDTA plasma was added to each enzyme. The enzymes C1s (100 nM), plasmin (100 nM), thrombin (100 nM), plasma kallikrein (20 nM), β-FXIIa (100 nM), trypsin (16 nM) or LTR EDTA plasma samples were incubated for 60 min at 4° C. with TBS-EDTA buffer containing either C1INH (40 μg/ml), bdellin (50 μg/ml), hirudin (50 U/ml), PPACK 11(10 μM), or CTI (100 μg/ml), before adding the substrate. LTR samples were 10 or 20-fold diluted with TBS-EDTA. The chromogenic substrate AGLTR-pNA was used for all enzymes and LTP samples except C1s where the substrate S2288 was used. Based on the initial rate of increase in OD at 405 nm, the residual free enzyme was calculated and expressed as a percentage of total activity determined without inhibitor added.

[10] = target: T5, plasmin; assay: Peptidase (amidolytic) activity of purified plasmin, chromogenic substrate, OD 405 nm; type: biochemical; conditions: Table 2
Protocol: as §1, §4, §5

[11] = test system: trypsin; assay: Peptidase (amidolytic) activity of purified trypsin, chromogenic substrate, OD 405 nm; type: biochemical; conditions: Table 2
Protocol: as §1, §4

[12] = target: T1, C1s; assay: Peptidase (amidolytic) activity of purified C1s, chromogenic substrate, 96-well plate, OD 405 nm; type: biochemical
Protocol: as §1, §4, §5

[13] = text on Tables 2 and 3, concentrations as there

| Molecule | Cleavage of the substrate by C1s, in words [1] | Cleavage of the substrate by thrombin, in words [2] | Cleavage of the substrate by plasma kallikrein, in words [3] | Cleavage of the substrate by trypsin, in words [4] | Cleavage of the substrate by tissue kallikrein, in words [5] | Cleavage of the substrate by β-FXIIa, in words [6] | Cleavage of the substrate by plasmin, in words [7] | Rate of conversion of the substrate by gel filtered LTR plasma, relative to AGLTR-pNA, in words [8] | also measured |
| --- | --- | --- | --- | --- | --- | --- | --- | --- | --- |
| Ac-Ala-Gly-Leu-Thr-Arg-p-nitroanilide (Ac-AGLTR-pNA; SMILES CC(=O)N[C@@H](C)C(=O)NCC(=O)N[C@@H](CC(C)C)C(=O)N[C@H](C(=O)N[C@@H](CCCNC(=N)N)C(=O)Nc1ccc([N+](=O)[O-])cc1)[C@@H](C)O) | almost no ability to cleave this substrate; also recorded: neither C1s nor any of the other proteinases efficiently cleaved this substrate | poorly cleaved | cleaved AGLTR-pNA relatively efficiently | cleaved AGLTR-pNA relatively efficiently | almost no ability to cleave this substrate | almost no ability to cleave this substrate | poorly cleaved |  |  |
| [dI]-Pro-Arg-pNA [S2288] | least active on these substrates | cleaved substrate S2288 more efficiently than S2302; also recorded: preferred S2288 over either AGLTR-pNA or S2302 | cleaved S2302 more rapidly than S2288 | cleaved substrate S2288 more efficiently than S2302 | least active on these substrates | least active on these substrates | least active on these substrates | somewhat greater than that using AGLTR-pNA |  |
| [dP]-Phe-Arg-pNA [S2302] | least active on these substrates | cleaved substrate S2288 more efficiently than S2302 | cleaved S2302 more rapidly than S2288 | cleaved substrate S2288 more efficiently than S2302 | least active on these substrates | least active on these substrates | least active on these substrates | somewhat greater than that using AGLTR-pNA |  |
| B1 |  |  |  |  |  |  |  |  | % Residual activity, LTR 1 ([9]; Table 2, LTR 1 EDTA plasma diluted 10 or 20-fold, substrate AGLTR-pNA, 60 min at 4° C. with LBTI 1 mg/ml, SBTI I mg/ml, aprotinin 0.075 mg/ml, benzamidine 50 mM or Futhan 0.1 mg/ml): 44.2%; % Residual activity, LTR 2 ([9]; Table 2, LTR 2 EDTA plasma diluted 10 or 20-fold, substrate AGLTR-pNA, 60 min at 4° C. with LBTI 1 mg/ml, SBTI I mg/ml, aprotinin 0.075 mg/ml, benzamidine 50 mM or Futhan 0.1 mg/ml): 61.9%; % Residual activity, LTR 3 ([9]; Table 2, LTR 3 EDTA plasma diluted 10 or 20-fold, substrate AGLTR-pNA, 60 min at 4° C. with LBTI 1 mg/ml, SBTI I mg/ml, aprotinin 0.075 mg/ml, benzamidine 50 mM or Futhan 0.1 mg/ml): 28.8%; Inhibition of the LTR plasma peptidase activity, in words [9, 13]: only partially effective; Inhibition of plasmin amidolytic activity, in words ([10]; concentrations as there): efficiently inhibited; % Residual activity, Plasmin ([10]; plasmin 100 nM, substrate AGLTR-pNA, 60 min at 4° C. with LBTI 1 mg/ml, SBTI I mg/ml, aprotinin 0.075 mg/ml, benzamidine 50 mM or Futhan 0.1 mg/ml): 3.7%; Inhibition of trypsin amidolytic activity, in words ([11]; concentrations as there): efficiently inhibited; % Residual activity, Trypsin ([11]; trypsin 16 nM, substrate AGLTR-pNA, 60 min at 4° C. with LBTI 1 mg/ml, SBTI I mg/ml, aprotinin 0.075 mg/ml, benzamidine 50 mM or Futhan 0.1 mg/ml): 5.3%; % Residual activity, C1s ([12]; Table 2, C1s 100 nM, substrate S2288, 60 min at 4° C. with LBTI 1 mg/ml, SBTI I mg/ml, aprotinin 0.075 mg/ml, benzamidine 50 mM or Futhan 0.1 mg/ml, % of total activity without inhibitor): 123.6%; Inhibition of C1s, in words [12, 13]: but not C1s; % Residual activity, Thrombin ([2]; Table 2, thrombin 100 nM, substrate AGLTR-pNA, 60 min at 4° C. with LBTI 1 mg/ml, SBTI I mg/ml, aprotinin 0.075 mg/ml, benzamidine 50 mM or Futhan 0.1 mg/ml): 46.7%; % Residual activity, Plasma Kallikrein ([3]; Table 2, plasma kallikrein 20 nM, substrate AGLTR-pNA, 60 min at 4° C. with LBTI 1 mg/ml, SBTI I mg/ml, aprotinin 0.075 mg/ml, benzamidine 50 mM or Futhan 0.1 mg/ml): 2.2%; Inhibition of purified plasma kallikrein activity, in words [3, 13]: efficiently inhibited; % Residual activity, β-FXIIa ([6]; Table 2, β-FXIIa 100 nM, substrate AGLTR-pNA, 60 min at 4° C. with LBTI 1 mg/ml, SBTI I mg/ml, aprotinin 0.075 mg/ml, benzamidine 50 mM or Futhan 0.1 mg/ml): 109.1% |
